These results are taken from PMC12650658, “Evaluating the Topological Features of Monomeric and Trimeric TRAF2-C: A Multi-Disciplinary Approach” (Biomolecules, 2025).

The data set deals with the molecule itself. The data set can be described thus: dynamic light scattering; TRAF2-C ≈ 4 µM (in monomers), 20 °C, filtered 0.22 µm; bimodal Gaussian fit of the size distribution (monomers, trimers).

B1: C-terminal domain of human TRAF2 (TRAF2-C, residues 310-501) (domain or fragment, UniProt Q12933 310-501, looked up)
chain: DQDKIEALSSKVQQLERSIGLKDLAMADLEQKVLEMEASTYDGVFIWKISDFARKRQEAVAGRIPAIFSPAFYTSRYGYKMCLRIYLNGDGTGRGTHLSLFFVVMKGPNDALLRWPFNQKVTLMLLDQNNREHVIDAFRPDVTSSSFQRPVNDMNIASGCPLFCPVSKMEAKNSYVRDDAIFIKAIVDLTGL
notes: TNF receptor-associated factor 2 (TRAF2), human, C-terminal domain, residues 310-501; Unlabelled protein used for DLS, CD and SANS; Only a pET-based vector is named; the tag is inferred from the Ni-NTA step; also called TRAF2 C-terminal domain; source: E. coli BL21 (DE3), purified (Ni-NTA, Superdex 75 SEC)
The term stoichiometry N denotes a count of units in the complex or per binding partner. As to B1, the “stoichiometry N” value came to 3.
